Test results reported in the supplement of paper PMC7877785.
± gives the uncertainty stated by the source.

Assay: self-splicing fitness, log relative to wild type (ln ratio); higher = more splicing; Tetrahymena group I intron in knt gene, E. coli kanamycin selection, DiMSum; sequences stand for … in CUCUCU…GGAGGGAAAAGUUAUCAGGCAUGCACCUGGUAGCUAGUCUUUAAACCAAUAGAUUGCAUCGGUUUAAAAGGCAAGACCGUCAAAUUGCGGGAAAGGGGUCAACAGCCGUUCAGUACCAAGUCUCAGGGGAAACUUUGAGAUGGCCUUGCAAAGGGUAUGGUAAUAAGCUGACGGACAUGGUCCUAACCACGCAGCCAAGUCCUAAGUCAACAGAUCUUCUGUUGAUAUGGAUGCAGUUCACAGACUAAAUGUCGGUCGGGGAAGAUGUAUUCUUCUCAUAAGAUAUAGUCGGACCUCUCCUUAAUGGGAGCUAGCGGAUGAAGUGAUGCAACACUGGAGCCGCUGGGAACUAAUUUGUAUGCGAAAGUAUAUUGAUUAGUUUUGGAGUACUCGUGGUCG
Outline: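 Colonies from six replicate transformations of E. coli BL21(DE3) were pooled and amplicon-sequenced on an Illumina HiSeq 2500. The library placed an intron with all eight P1ex-region nucleotides randomised inside the knt kanamycin-resistance gene on pET-22b(+), and cells grew overnight at 37°C or 30°C on LB agar with or without 25 μg/mL kanamycin (plus 100 μg/mL carbenicillin, 50 μM IPTG, 0.2% rhamnose). Fitness is the DiMSum error-weighted combination of wild-type-normalised replicate fold changes, kanamycin versus none.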

Row | Sequence | self-splicing fitness (ln) (37 °C) | self-splicing fitness (ln) (30 °C)
1 | UUCGAGCAAUAUUACGCUAC | -0.0805 ± 0.34 | 
2 | CGGAAGCAAUAUUACGGCGG | 0.177 ± 0.13 | -0.184 ± 0.1
3 | AUGCAGCAAUAUUACGCUCC | 0.0573 ± 0.36 | -2.02 ± 0.29
4 | GAGCAGCAAUAUUACGGGCG | -0.811 ± 0.16 | -2.09 ± 0.14
5 | AUGAAGCAAUAUUACGUGAC | -1.63 ± 0.15 | -2.85 ± 0.13
6 | UUGAAGCAAUAUUACGUCAA | 0.078 ± 0.1 | -0.54 ± 0.083
7 | UUAUAGCAAUAUUACGGUUU | -1.09 ± 0.12 | -1.66 ± 0.1
8 | AUCCAGCAAUAUUACGUUCA | -0.265 ± 0.072 | -1.02 ± 0.068
9 | CCUCAGCAAUAUUACGAAUG | -0.196 ± 0.1 | -1.01 ± 0.089
10 | GCUCAGCAAUAUUACGUAUA | -0.338 ± 0.085 | -1.73 ± 0.096
11 | UUAGAGCAAUAUUACGAAAA | -0.776 ± 0.15 | -1.66 ± 0.13
12 | CUUAAGCAAUAUUACGCAUU | -1.92 ± 0.17 | -3.82 ± 0.2
13 | CGAAAGCAAUAUUACGGGUA | -2.57 ± 0.14 | -2.73 ± 0.16
14 | UUGAAGCAAUAUUACGAAAU | -0.963 ± 0.09 | -3.51 ± 0.13
15 | AGUUAGCAAUAUUACGGGCA | -0.162 ± 0.15 | -0.103 ± 0.13
16 | CGUUAGCAAUAUUACGCCCG |  | -0.798 ± 0.29
17 | GCAAAGCAAUAUUACGGUUA | -0.429 ± 0.076 | -0.938 ± 0.08
18 | GAAGAGCAAUAUUACGGAUG | -1.09 ± 0.31 | -3.4 ± 0.45
19 | GUUUAGCAAUAUUACGCGAG | -0.934 ± 0.16 | -1.48 ± 0.17

Row | Sequence | self-splicing fitness (ln) (37 °C) | self-splicing fitness (ln) (30 °C)
20 | CAAAAGCAAUAUUACGAUCU | -0.593 ± 0.09 | -2.14 ± 0.078
21 | AGUUAGCAAUAUUACGGUAA | -1.53 ± 0.12 | -2.21 ± 0.17
22 | UGCCAGCAAUAUUACGCGUA | -0.301 ± 0.083 | -1.13 ± 0.075
23 | GGGGAGCAAUAUUACGUUGA | -2.27 ± 0.24 | -3.11 ± 0.26
24 | AGGGAGCAAUAUUACGAAAU | -1.22 ± 0.24 | -3.18 ± 0.35
25 | GUCAAGCAAUAUUACGGCUU | -2.74 ± 0.31 | -4.12 ± 0.35
26 | CCCAAGCAAUAUUACGCCAA | -2.47 ± 0.2 | -2.82 ± 0.16
27 | AAUCAGCAAUAUUACGGCUC | 0.535 ± 0.097 | -0.84 ± 0.082
28 | CCGCAGCAAUAUUACGAGCC | -2.09 ± 0.2 | -3.64 ± 0.23
29 | GGAUAGCAAUAUUACGACUC | 0.298 ± 0.23 | -0.498 ± 0.16
30 | CAUCAGCAAUAUUACGCAAU | -3.15 ± 0.17 | -4.01 ± 0.24
31 | UUUAAGCAAUAUUACGCGCA | 0.0171 ± 0.15 | -0.212 ± 0.11
32 | CUUCAGCAAUAUUACGCGGC | -1.01 ± 0.19 | -3.24 ± 0.36
33 | CUCCAGCAAUAUUACGCCGG | -2.98 ± 0.24 | -3.83 ± 0.26
34 | GGUGAGCAAUAUUACGUCGG | -2.5 ± 0.3 | -2.16 ± 0.28
35 | GGGUAGCAAUAUUACGUGUU | -0.992 ± 0.11 | -1.37 ± 0.097
36 | UCGCAGCAAUAUUACGAAUG | -4.35 ± 0.42 | -3.42 ± 0.23
37 | UCGGAGCAAUAUUACGGGCC | -3.6 ± 0.33 | -4.15 ± 0.39
